Where two headings read alike, the source gives them in different places.

Data set [1] deals with the molecule itself. In words: SEC. (Size exclusion chromatography separates by hydrodynamic size, large species first.)
Data set [2] concerns the molecule itself. In words: SEC. The source holds these as a separate data set.
Data set [3] concerns the molecule itself. In words: crystal structure.

B1: EcMinEΔN (residues 32-88 of EcMinE) (domain or fragment, E. coli, UniProt P0A734 32-88, looked up)
chain: SDAEPHYLPQLRKDILEVICKYVQIDPEMVTVQLEQKDGDISILELNVTLPEAEELK
Turning to B1, in data set [1], the stoichiometry N (in general, the number of molecules, sites or subunits per partner or assembly) was 4.

B2: HpMinEΔN (residues 29-77 of HpMinE) (domain or fragment, Helicobacter pylori, UniProt O25099 29-77, looked up)
chain: TLNLPYMEEMRKEIIAVIQKYTKSSDIHFKTLDSNQSVETIEVEIILPR
Take B2: in data set [1], the “stoichiometry N” value worked out at 3.

B3: full-length Helicobacter pylori MinE (natural protein, UniProt O25099 1-77, looked up)
chain: MSLFDFFKNKGSAATATDRLKLILAKERTLNLPYMEEMRKEIIAVIQKYTKSSDIHFKTLDSNQSVETIEVEIILPR
For the protein B3, in data set [2], the “stoichiometry N” value was found to be 2.

B4: Selenomethionine (Se-Met)-labelled HpMinE (natural protein, Helicobacter pylori, UniProt O25099 1-77, looked up)
chain: MSLFDFFKNKGSAATATDRLKLILAKERTLNLPYMEEMRKEIIAVIQKYTKSSDIHFKTLDSNQSVETIEVEIILPR
modifications: selenomethionine (Se-Met-labelled)
Turning to B4, in data set [3], the binding result was “binds”.

Values taken from paper PMC2883074 (Molecular Microbiology, 2010).
